Reference: PMC11848572, “Expanding the Functions of KHSRP Protein: Insights into DNA G‐Quadruplex Binding”

T1: KHSRP130-503 (four KH domains) (Homo sapiens, UniProt Q92945 130-503)
T1 sequence: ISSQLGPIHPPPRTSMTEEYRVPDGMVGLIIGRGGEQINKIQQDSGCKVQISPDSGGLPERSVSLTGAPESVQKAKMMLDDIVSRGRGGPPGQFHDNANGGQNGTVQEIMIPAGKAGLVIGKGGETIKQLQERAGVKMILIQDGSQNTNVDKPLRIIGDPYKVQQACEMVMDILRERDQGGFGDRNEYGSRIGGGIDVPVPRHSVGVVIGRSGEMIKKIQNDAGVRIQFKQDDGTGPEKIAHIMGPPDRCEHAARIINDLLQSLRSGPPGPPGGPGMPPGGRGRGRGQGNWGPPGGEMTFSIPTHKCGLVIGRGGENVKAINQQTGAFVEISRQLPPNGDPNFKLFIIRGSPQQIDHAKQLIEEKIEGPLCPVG


Biological target: T1, KHSRP130-503 (four KH domains)
Assay: SPR; 25 C, single-cycle kinetics; SPR at 25 C, 1-20 uM G4 over immobilized protein (buffer not in the material); NMR at 25 C (298 K), protein in 5 mM KH2PO4/K2HPO4 pH 7.0, 20 mM KCl
Settings: protein: recombinant, tags: N-terminal His-tag (pET-28a), TEV-cleaved

Binder	Kd (parallel G4, intramolecular) [nM]	Kd (hybrid G4, intramolecular) [nM]
AGGGAGGGCGCTGGGAGGAGGG (structured_DNA) [c-Kit1]	190 ± 90	
GGGCGCGGGAGGAATTGGGCGGG (structured_DNA) [Bcl-2]		2000 ± 980
CGGGCGGGCGCTAGGGAGGGT (structured_DNA) [c-Kit2]	56 ± 8	
TGAGGGTGGGTAGGGTGGGTAA (structured_DNA) [c-Myc]	130 ± 25	
TTGGGTTAGGGTTAGGGTTAGGGA (structured_DNA) [mTel24]		1470 ± 480
